These results are taken from the supplement of paper PMC7125110.

B1: glmS ribozyme (parent)
chain: AUAAAAGCGCCAGAACUACAGAAAUGUAGUUGACGAGGAGGAGGUUUAUCGAAUUUUCGGCGGAUGCCUCCAAA

Conditions in all cases: with glucosamine-6-phosphate
The variants in series [1] derive from B1. In words: self-cleavage kobs at 40 uM GlcN6P; higher = faster cleavage; RNA array. The method, boiled down: (§1)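 Tiles bearing barcoded ribozyme variants, transcribed in situ by E. coli RNA polymerase on sequenced MiSeq chips, were imaged over ~14 h at 37 °C using a hybridised Cy3 probe. Glucosamine-6-phosphate was supplied at 40 μM to 10 mM in HEPES/KCl/Mg(OAc)2 buffer. kobs came from one- or two-exponential decay fits to normalised per-tile medians, and weighted Michaelis–Menten fits then provided kcat and KM.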

The variants in series [2] derive from B1. In words: self-cleavage kobs at 10000 uM GlcN6P; higher = faster cleavage; RNA array. The method, boiled down:
as §1

In series [3] the parent is B1. Kind of series: kcat; higher = faster cleavage; RNA array. The method, boiled down:
as §1

Variants of B1 are the subject of series [4]. Kind of series: self-cleavage kobs at 640 uM GlcN6P; higher = faster cleavage; RNA array. An outline of the steps: as §1
In series [5] the parent is B1. Kind of series: self-cleavage kobs at 2500 uM GlcN6P; higher = faster cleavage; RNA array. The method, boiled down: as §1
In series [6] the parent is B1. Kind of series: KM; higher = weaker cofactor use; RNA array. The method, boiled down: as §1
The variants in series [7] derive from B1. Kind of series: self-cleavage kobs at 160 uM GlcN6P; higher = faster cleavage; RNA array. The method, boiled down:
as §1

± gives the standard error. For some assays here: Variants at the floor of the assay were thinned out.

In the case of U30G U45A C71U, the “self-cleavage kobs at 40 uM GlcN6P” value with glucosamine-6-phosphate [1] was 0.000183 ± 4.7e-05 s⁻¹. For the same variant, the “self-cleavage kobs at 10000 uM GlcN6P” value with glucosamine-6-phosphate [2] amounted to 0.00282 ± 0.0011 s⁻¹.

In the case of A6G G35U U56A, in the series with glucosamine-6-phosphate [1], the “self-cleavage kobs at 40 uM GlcN6P” value is less than 1e-05 s⁻¹.

With A6G U56A U65C, the “self-cleavage kobs at 40 uM GlcN6P” value with glucosamine-6-phosphate [1] was less than 1e-05 s⁻¹.

For A6U A15G, the kcat with glucosamine-6-phosphate [3] was 0.000987 ± 0.00028 s⁻¹. Besides, the “self-cleavage kobs at 640 uM GlcN6P” value in the series with glucosamine-6-phosphate [4] was found to be 4.1e-05 ± 1.2e-05 s⁻¹. Also, the “self-cleavage kobs at 2500 uM GlcN6P” value in the series with glucosamine-6-phosphate [5] was 0.0002 ± 3.8e-05 s⁻¹. In addition, the “self-cleavage kobs at 10000 uM GlcN6P” value with glucosamine-6-phosphate [2] came to 0.000441 ± 5.1e-05 s⁻¹.

For the variant G32C A53U G66U, the “self-cleavage kobs at 40 uM GlcN6P” value in the series with glucosamine-6-phosphate [1] is less than 1e-05 s⁻¹.

In the case of C61G C67G C70G, in the series with glucosamine-6-phosphate [3], the kcat is less than 1e-05 s⁻¹.

Regarding G29A C71G, the kcat in the series with glucosamine-6-phosphate [3] was 0.00019 ± 3.4e-05 s⁻¹. Further, the “self-cleavage kobs at 640 uM GlcN6P” value with glucosamine-6-phosphate [4] is 9.26e-05 ± 2.3e-05 s⁻¹. The “self-cleavage kobs at 2500 uM GlcN6P” value with glucosamine-6-phosphate [5] was found to be 0.000117 ± 2.3e-05 s⁻¹. Also, the “self-cleavage kobs at 10000 uM GlcN6P” value with glucosamine-6-phosphate [2] amounted to 0.000204 ± 3.3e-05 s⁻¹.

As to G13C G32C, the kcat with glucosamine-6-phosphate [3] came out at 0.000728 ± 0.00016 s⁻¹. Further, in the series with glucosamine-6-phosphate [6], the Michaelis constant (KM) came to 3050 ± 1200 µM. Besides, the “self-cleavage kobs at 160 uM GlcN6P” value in the series with glucosamine-6-phosphate [7] came to 4.58e-05 ± 1.6e-05 s⁻¹. The “self-cleavage kobs at 640 uM GlcN6P” value in the series with glucosamine-6-phosphate [4] was determined as 0.000109 ± 2.2e-05 s⁻¹. Also, the “self-cleavage kobs at 2500 uM GlcN6P” value with glucosamine-6-phosphate [5] came to 0.000408 ± 7e-05 s⁻¹. For the same variant, in the series with glucosamine-6-phosphate [2], the “self-cleavage kobs at 10000 uM GlcN6P” value is 0.000534 ± 7.8e-05 s⁻¹.

Take U55A U56G: the “self-cleavage kobs at 40 uM GlcN6P” value with glucosamine-6-phosphate [1] came to 0.000292 ± 4.8e-05 s⁻¹. Besides, the “self-cleavage kobs at 160 uM GlcN6P” value with glucosamine-6-phosphate [7] worked out at 0.000454 ± 8.8e-05 s⁻¹. Also, in the series with glucosamine-6-phosphate [4], the “self-cleavage kobs at 640 uM GlcN6P” value was 0.00368 ± 0.00046 s⁻¹. In the series with glucosamine-6-phosphate [5], the “self-cleavage kobs at 2500 uM GlcN6P” value stood at 0.00771 ± 0.0013 s⁻¹. Also, the “self-cleavage kobs at 10000 uM GlcN6P” value in the series with glucosamine-6-phosphate [2] was determined as 0.0097 ± 0.0019 s⁻¹.

Take G13A U46G G59U C70U: the “self-cleavage kobs at 40 uM GlcN6P” value with glucosamine-6-phosphate [1] is less than 1e-05 s⁻¹. Besides, the “self-cleavage kobs at 2500 uM GlcN6P” value in the series with glucosamine-6-phosphate [5] was less than 1e-05 s⁻¹.

In the case of G9U A48C C50G, the KM with glucosamine-6-phosphate [6] worked out at 92.6 ± 7.4 µM.

Regarding A15C G38U, in the series with glucosamine-6-phosphate [6], the Michaelis-Menten constant (KM) came to 67.7 ± 27 µM.

On to C10G U30A, for which the “self-cleavage kobs at 40 uM GlcN6P” value in the series with glucosamine-6-phosphate [1] is less than 1e-05 s⁻¹. Further, in the series with glucosamine-6-phosphate [7], the “self-cleavage kobs at 160 uM GlcN6P” value was less than 1e-05 s⁻¹. Further, the “self-cleavage kobs at 640 uM GlcN6P” value with glucosamine-6-phosphate [4] was less than 1e-05 s⁻¹. In addition, the “self-cleavage kobs at 2500 uM GlcN6P” value in the series with glucosamine-6-phosphate [5] was less than 1e-05 s⁻¹. Besides, the “self-cleavage kobs at 10000 uM GlcN6P” value with glucosamine-6-phosphate [2] was less than 1e-05 s⁻¹.

Regarding G32A C70A, in the series with glucosamine-6-phosphate [3], the kcat was 7.22e-05 ± 1.4e-05 s⁻¹. In addition, in the series with glucosamine-6-phosphate [4], the “self-cleavage kobs at 640 uM GlcN6P” value came out at 8.06e-05 ± 1.2e-05 s⁻¹. Besides, the “self-cleavage kobs at 2500 uM GlcN6P” value in the series with glucosamine-6-phosphate [5] stood at 8.73e-05 ± 8.9e-06 s⁻¹. Also, in the series with glucosamine-6-phosphate [2], the “self-cleavage kobs at 10000 uM GlcN6P” value came to 5.13e-05 ± 8.6e-06 s⁻¹.

A42C G63A: the “self-cleavage kobs at 40 uM GlcN6P” value with glucosamine-6-phosphate [1] was less than 1e-05 s⁻¹. Besides, the “self-cleavage kobs at 160 uM GlcN6P” value with glucosamine-6-phosphate [7] is less than 1e-05 s⁻¹. The “self-cleavage kobs at 640 uM GlcN6P” value in the series with glucosamine-6-phosphate [4] is less than 1e-05 s⁻¹. Besides, in the series with glucosamine-6-phosphate [2], the “self-cleavage kobs at 10000 uM GlcN6P” value was less than 1e-05 s⁻¹.

As to G7C G37U U47C G59U G66U C70U, in the series with glucosamine-6-phosphate [1], the “self-cleavage kobs at 40 uM GlcN6P” value was less than 1e-05 s⁻¹. Moreover, the “self-cleavage kobs at 160 uM GlcN6P” value with glucosamine-6-phosphate [7] was less than 1e-05 s⁻¹. In addition, the “self-cleavage kobs at 10000 uM GlcN6P” value with glucosamine-6-phosphate [2] is less than 1e-05 s⁻¹.

As for A15C G29A G60A, the “self-cleavage kobs at 40 uM GlcN6P” value with glucosamine-6-phosphate [1] is less than 1e-05 s⁻¹.

In the case of G9C G13U, in the series with glucosamine-6-phosphate [1], the “self-cleavage kobs at 40 uM GlcN6P” value is less than 1e-05 s⁻¹. Besides, in the series with glucosamine-6-phosphate [7], the “self-cleavage kobs at 160 uM GlcN6P” value was less than 1e-05 s⁻¹. In addition, the “self-cleavage kobs at 640 uM GlcN6P” value in the series with glucosamine-6-phosphate [4] was less than 1e-05 s⁻¹. In addition, the “self-cleavage kobs at 2500 uM GlcN6P” value with glucosamine-6-phosphate [5] was less than 1e-05 s⁻¹. The “self-cleavage kobs at 10000 uM GlcN6P” value with glucosamine-6-phosphate [2] is less than 1e-05 s⁻¹.

Take A15G U46G A48U G59A: in the series with glucosamine-6-phosphate [1], the “self-cleavage kobs at 40 uM GlcN6P” value is less than 1e-05 s⁻¹. Further, the “self-cleavage kobs at 160 uM GlcN6P” value with glucosamine-6-phosphate [7] was less than 1e-05 s⁻¹. Moreover, the “self-cleavage kobs at 2500 uM GlcN6P” value with glucosamine-6-phosphate [5] is less than 1e-05 s⁻¹. Moreover, the “self-cleavage kobs at 10000 uM GlcN6P” value with glucosamine-6-phosphate [2] was less than 1e-05 s⁻¹.

For the variant A6C A12C U57G, in the series with glucosamine-6-phosphate [3], the catalytic constant (kcat) turned out to be 1.28e-05 ± 2.4e-06 s⁻¹. The “self-cleavage kobs at 10000 uM GlcN6P” value with glucosamine-6-phosphate [2] was less than 1e-05 s⁻¹.

C10U G29A U47G: the “self-cleavage kobs at 40 uM GlcN6P” value with glucosamine-6-phosphate [1] is less than 1e-05 s⁻¹.

For C10A A36U C68G, the “self-cleavage kobs at 40 uM GlcN6P” value with glucosamine-6-phosphate [1] stood at 8.85e-05 ± 2.9e-05 s⁻¹. Moreover, in the series with glucosamine-6-phosphate [2], the “self-cleavage kobs at 10000 uM GlcN6P” value is 6.62e-05 ± 2.1e-05 s⁻¹.

In the case of A39C A64U, the kcat with glucosamine-6-phosphate [3] worked out at 1.4e-05 ± 2.1e-06 s⁻¹.

As for G43A C68A, the kcat in the series with glucosamine-6-phosphate [3] was determined as 2.1e-05 ± 8.5e-06 s⁻¹.

Take G9A G40C: in the series with glucosamine-6-phosphate [1], the “self-cleavage kobs at 40 uM GlcN6P” value was less than 1e-05 s⁻¹. Besides, the “self-cleavage kobs at 160 uM GlcN6P” value in the series with glucosamine-6-phosphate [7] was less than 1e-05 s⁻¹. Moreover, the “self-cleavage kobs at 640 uM GlcN6P” value in the series with glucosamine-6-phosphate [4] is less than 1e-05 s⁻¹.
